This assay addresses t-PA (Homo sapiens, UniProt P00750). Kind of assay: SPR. In general terms: Surface plasmon resonance follows binding to a sensor surface in real time, without labels.

t-PA, sequence (P00750 36-562): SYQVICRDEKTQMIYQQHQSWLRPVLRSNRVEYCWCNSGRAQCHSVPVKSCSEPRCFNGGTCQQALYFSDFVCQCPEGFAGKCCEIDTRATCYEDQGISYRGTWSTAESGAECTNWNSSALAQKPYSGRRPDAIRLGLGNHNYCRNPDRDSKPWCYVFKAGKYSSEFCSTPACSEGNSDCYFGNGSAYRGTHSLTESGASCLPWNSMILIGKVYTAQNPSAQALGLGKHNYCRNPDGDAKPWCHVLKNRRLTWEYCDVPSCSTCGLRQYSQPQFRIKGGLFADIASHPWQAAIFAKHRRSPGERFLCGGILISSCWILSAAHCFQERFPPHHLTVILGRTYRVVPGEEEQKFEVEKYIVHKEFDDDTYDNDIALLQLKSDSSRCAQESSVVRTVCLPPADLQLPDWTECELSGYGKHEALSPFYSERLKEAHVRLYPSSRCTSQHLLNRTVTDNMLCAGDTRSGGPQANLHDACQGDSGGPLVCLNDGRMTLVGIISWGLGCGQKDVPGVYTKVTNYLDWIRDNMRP

B1: β2-glycoprotein I (protein)
chain: GRTCPKPDDLPFSTVVPLKTFYEPGEEITYSCKPGYVSRGGMRKFICPLTGLWPINTLKCTPRVCPFAGILENGAVRYTTFEYPNTISFSCNTGFYLNGADSAKCTEEGKWSPELPVCAPIICPPPSIPTFATLRVYKPSAGNNSLYRDTAVFECLPQHAMFGNDTITCTTHGNWTKLPECREVKCPFPSRPDNGFVNYPAKPTLYYKDKATFGCHDGYSLDGPEEIECTKLGNWSAMPSCKASCKVPVKKATVVYQGERVKIQEKFKNGMLHGDKVSFFCKNKEKKCSYTEDAQCIDGTIEVPKCFKEHSSLAFWKTDASDVKPC
For orientation: Kd means the free concentration of one partner at which half of the binding sites on the other are occupied at equilibrium, for simple one-to-one binding. B1: binding was characterised by a dissociation constant (Kd) of 20 nM.

Values taken from paper PMC2965030 (2009).
